The record followed here is publication PMC7559292 (Science (New York, N.Y.), 2020).

The labels stand for the following.
B2: STN1 (subunit of purified recombinant human CST) (natural protein, UniProt Q9H668 1-368, looked up)
chain: MQPGSSRCEEETPSLLWGLDPVFLAFAKLYIRDILDMKESRQVPGVFLYNGHPIKQVDVLGTVIGVRERDAFYSYGVDDSTGVINCICWKKLNTESVSAAPSAARELSLTSQLKKLQETIEQKTKIEIGDTIRVRGSIRTYREEREIHATTYYKVDDPVWNIQIARMLELPTIYRKVYDQPFHSSALEKEEALSNPGALDLPSLTSLLSEKAKEFLMENRVQSFYQQELEMVESLLSLANQPVIHSASSDQVNFKKDTTSKAIHSIFKNAIQLLQEKGLVFQKDDGFDNLYYVTREDKDLHRKIHRIIQQDCQKPNHMEKGCHFLHILACARLSIRPGLSEAVLQQVLELLEDQSDIVSTMEHYYTAF
B3: CTC1 (subunit of purified recombinant human CST) (natural protein, UniProt Q2NKJ3 1-1217, looked up)
chain: MAAGRAQVPSSEQAWLEDAQVFIQKTLCPAVKEPNVQLTPLVIDCVKTVWLSQGRNQGSTLPLSYSFVSVQDLKTHQRLPCCSHLSWSSSAYQAWAQEAGPNGNPLPREQLLLLGTLTDLSADLEQECRNGSLYVRDNTGVLSCELIDLDLSWLGHLFLFPRWSYLPPARWNSSGEGHLELWDAPVPVFPLTISPGPVTPIPVLYPESASCLLRLRNKLRGVQRNLAGSLVRLSALVKSKQKAYFILSLGRSHPAVTHVSIIVQVPAQLVWHRALRPGTAYVLTELRVSKIRGQRQHVWMTSQSSRLLLLKPECVQELELELEGPLLEADPKPLPMPSNSEDKKDPESLVRYSRLLSYSGAVTGVLNEPAGLYELDGQLGLCLAYQQFRGLRRVMRPGVCLQLQDVHLLQSVGGGTRRPVLAPCLRGAVLLQSFSRQKPGAHSSRQAYGASLYEQLVWERQLGLPLYLWATKALEELACKLCPHVLRHHQFLQHSSPGSPSLGLQLLAPTLDLLAPPGSPVRNAHNEILEEPHHCPLQKYTRLQTPSSFPTLATLKEEGQRKAWASFDPKALLPLPEASYLPSCQLNRRLAWSWLCLLPSAFCPAQVLLGVLVASSHKGCLQLRDQSGSLPCLLLAKHSQPLSDPRLIGCLVRAERFQLIVERDVRSSFPSWKELSMPGFIQKQQARVYVQFFLADALILPVPRPCLHSATPSTPQTDPTGPEGPHLGQSRLFLLCHKEALMKRNFCVPPGASPEVPKPALSFYVLGSWLGGTQRKEGTGWGLPEPQGNDDNDQKVHLIFFGSSVRWFEFLHPGQVYRLIAPGPATPMLFEKDGSSCISRRPLELAGCASCLTVQDNWTLELESSQDIQDVLDANKSLPESSLTDLLSDNFTDSLVSFSAEILSRTLCEPLVASLWMKLGNTGAMRRCVKLTVALETAECEFPPHLDVYIEDPHLPPSLGLLPGARVHFSQLEKRVSRSHNVYCCFRSSTYVQVLSFPPETTISIPLPHIYLAELLQGGQSPFQATASCHIVSVFSLQLFWVCAYCTSICRQGKCTRLGSTCPTQTAISQAIIRLLVEDGTAEAVVTCRNHHVAAALGLCPREWASLLDFVQVPGRVVLQFAGPGAQLESSARVDEPMTMFLWTLCTSPSVLRPIVLSFELERKPSKIVPLEPPRLQRFQCGELPFLTHVNPRLRLSCLSIRESEYSSSLGILASSC

Values joined by “and” are separate entries in the source; they are usually repeats but may differ in a detail not shown here. Equal values may be shown once.

The series “negative-stain EM” concerns the molecule itself. As to the kind of experiment: negative-stain EM.
The target of series [1] is B3. The series can be described thus: cryo-EM structure.
The series “cryo-EM structure” deals with the molecule itself. As to the kind of experiment: cryo-EM structure.
The target of series [2] is B2. As to the kind of experiment: cryo-EM structure.

B1: human CTC1-STN1-TEN1 (CST) complex, purified recombinant heterotrimer (complex)
chain 1: AAGRAQVPSSEQAWLEDAQVFIQKTLCPAVKEPNVQLTPLVIDCVKTVWLSQGRNQGSTLPLSYSFVSVQDLKTHQRLPCCSHLSWSSSAYQAWAQEAGPNGNPLPREQLLLLGTLTDLSADLEQECRNGSLYVRDNTGVLSCELIDLDLSWLGHLFLFPRWSYLPPARWNSSGEGHLELWDAPVPVFPLTISPGPVTPIPVLYPESASCLLRLRNKLRGVQRNLAGSLVRLSALVKSKQKAYFILSLGRSHPAVTHVSIIVQVPAQLVWHRALRPGTAYVLTELRVSKIRGQRQHVWMTSQSSRLLLLKPECVQELELELEGPLLEADPKPLPMPSNSEDKKDPESLVRYSRLLSYSGAVTGVLNEPAGLYELDGQLGLCLAYQQFRGLRRVMRPGVCLQLQDVHLLQSVGGGTRRPVLAPCLRGAVLLQSFSRQKPGAHSSRQAYGASLYEQLVWERQLGLPLYLWATKALEELACKLCPHVLRHHQFLQHSSPGSPSLGLQLLAPTLDLLAPPGSPVRNAHNEILEEPHHCPLQKYTRLQTPSSFPTLATLKEEGQRKAWASFDPKALLPLPEASYLPSCQLNRRLAWSWLCLLPSAFCPAQVLLGVLVASSHKGCLQLRDQSGSLPCLLLAKHSQPLSDPRLIGCLVRAERFQLIVERDVRSSFPSWKELSMPGFIQKQQARVYVQFFLADALILPVPRPCLHSATPSTPQTDPTGPEGPHLGQSRLFLLCHKEALMKRNFCVPPGASPEVPKPALSFYVLGSWLGGTQRKEGTGWGLPEPQGNDDNDQKVHLIFFGSSVRWFEFLHPGQVYRLIAPGPATPMLFEKDGSSCISRRPLELAGCASCLTVQDNWTLELESSQDIQDVLDANKSLPESSLTDLLSDNFTDSLVSFSAEILSRTLCEPLVASLWMKLGNTGAMRRCVKLTVALETAECEFPPHLDVYIEDPHLPPSLGLLPGARVHFSQLEKRVSRSHNVYCCFRSSTYVQVLSFPPETTISIPLPHIYLAELLQGGQSPFQATASCHIVSVFSLQLFWVCAYCTSICRQGKCTRLGSTCPTQTAISQAIIRLLVEDGTAEAVVTCRNHHVAAALGLCPREWASLLDFVQVPGRVVLQFAGPGAQLESSARVDEPMTMFLWTLCTSPSVLRPIVLSFELERKPSKIVPLEPPRLQRFQCGELPFLTHVNPRLRLSCLSIRESEYSSSLGILASSC
chain 2: QPGSSRCEEETPSLLWGLDPVFLAFAKLYIRDILDMKESRQVPGVFLYNGHPIKQVDVLGTVIGVRERDAFYSYGVDDSTGVINCICWKKLNTESVSAAPSAARELSLTSQLKKLQETIEQKTKIEIGDTIRVRGSIRTYREEREIHATTYYKVDDPVWNIQIARMLELPTIYRKVYDQPFHSSALEKEEALSNPGALDLPSLTSLLSEKAKEFLMENRVQSFYQQELEMVESLLSLANQPVIHSASSDQVNFKKDTTSKAIHSIFKNAIQLLQEKGLVFQKDDGFDNLYYVTREDKDLHRKIHRIIQQDCQKPNHMEKGCHFLHILACARLSIRPGLSEAVLQQVLELLEDQSDIVSTMEHYYTAF
chain 3: LPKPGTYYLPWEVSAGQVPDGSTLRTFGRLCLYDMIQSRVTLMAQHGSDQHQVLVCTKLVEPFHAQVGSLYIVLGELQHQQDRGSVVKARVLTCVEGMNLPLLEQAIREQRLYKQERGGSQ
In the case of B1, the “stoichiometry N” value in “negative-stain EM” is 4 and 2.

With B2, the “stoichiometry N” value in series [1] amounted to 1. On to B3, for which the binding result in the series “cryo-EM structure” is “binds”.

B4: TEN1 (subunit of purified recombinant human CST) (natural protein)
chain: MLPKPGTYYLPWEVSAGQVPDGSTLRTFGRLCLYDMIQSRVTLMAQHGSDQHQVLVCTKLVEPFHAQVGSLYIVLGELQHQQDRGSVVKARVLTCVEGMNLPLLEQAIREQRLYKQERGGSQ
On to B4, for which the binding result in series [1] is listed as “binds”. The “stoichiometry N” value in series [2] is 1.

One may read the stoichiometry N as a count of units in the complex or per binding partner.
